Data: patent US20240182592A1 (CHIA TAI TIANQING PHARMACEUTICAL GROUP, published 2024)

Columns and labels:
[1] = target: T1, human CD3e (Acro, Cat. No. CDE-H5223) (human, UniProt P07766 23-126); experiment: SPR (Biacore T200), antibody captured by anti-hIgG, human CD3e as analyte, 1:1 model
T1 construct: also called human CD3e protein; hCD3e
Method: (§1) The affinity of the test antibody for human CD3e or human BCMA protein was determined by Biacore T200 (GE) as follows:
(§2) The response signals were detected in real time using Biacore software, and association and dissociation curves were obtained. The buffer used in the experiment was Biacore universal buffer (137 mM NaCl, 2.7 mM KCl, 10 mM Na₂HPO₄.12H₂O, 1.8 mM KH₂PO₄. 0.05% surfactant P-20 (w/v), pH 7.4). […] The flow rate in the flow cell was at 50 μL/min, the association was performed for 240 s, the dissociation was performed for 1400 s, the regeneration was performed using 3 M MgCl (GE) for 60 s, and the baseline was stable. Results were obtained by calculation according to the affinity and kinetics 1:1 binding mode in biacore evaluation software.

[2] = target: T2, human BCMA on cells (human, UniProt Q02223 1-184); experiment: cell-based or functional assay
T2 sequence (looked up): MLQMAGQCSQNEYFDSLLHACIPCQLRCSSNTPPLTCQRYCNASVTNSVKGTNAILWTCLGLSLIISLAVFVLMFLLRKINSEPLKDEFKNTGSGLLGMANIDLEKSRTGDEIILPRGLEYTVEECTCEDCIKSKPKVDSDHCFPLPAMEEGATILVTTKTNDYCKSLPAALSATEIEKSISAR

[3] = target: T3, human BCMA protein (human, UniProt Q02223 1-54, limits assumed); experiment: SPR (Biacore T200), antibody captured by anti-hIgG, human BCMA as analyte, 1:1 model
T3 construct: also called hBCMA; Antigen BCMA
T3 sequence (looked up): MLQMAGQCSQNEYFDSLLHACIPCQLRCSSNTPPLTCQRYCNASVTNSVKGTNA
Method: as §1, §2

[4] = target: T2, human BCMA on cells; experiment: cell-based or functional assay; remark: listed apart in the source
[5] = target: T2, human BCMA on cells; experiment: cell-based or functional assay; remark: listed apart in the source
[6] = target: T2, human BCMA on cells; experiment: flow cytometry on RPMI-8226 cells, fluorescent goat anti-human IgG detection
Method: (§3) NCI-H929 cells (BCMA+++), MM1S cells (BCMA++), and RPMI-8226 cells (BCMA+) in the logarithmic growth phase were taken, adjusted to a cell density of 5×10⁶-10×10⁶ cells/mL using RPMI medium (Hyclon, catalog No. SH30809.01) containing 2% FBS (fetal bovine serum), respectively, and seeded in a 96-well U-bottom cell culture plate (Costar, catalog No. 3799) at 50 μL per well. The test antibodies at different concentrations were prepared using the medium described above. […] The antibodies at different concentrations were added to the 96-well cell culture plate described above at 50 μL per well, mixed well and incubated at 4° C. for 1 h. The cells were washed with pre-cooled running buffer (MACS, catalog No. 130-091-221), and the supernatant was discarded. Pre-cooled fluorescent labeled goat anti-human IgG antibodies (Jackson, catalog No. 109-116-170) were added, and the cells were resuspended at 100 μL per well, mixed well and incubated at 4° C. for 30 min. After washing, 100 μL of pre-cooled running buffer was added to resuspend the cells. The cells were mixed well and collected while flowing on an Attune™ NxT flow cytometer, and the data was analyzed using Graphpad Prism5 software. FIGS. 7-9 and Table 11 show the binding ability of the anti-BCMA/anti-CD3 multispecific antibodies to NCI-H929 cells (BCMA+++), MM1S cells (BCMA++), and RPMI-8226 cells (BCMA+).

[7] = target: T2, human BCMA on cells; experiment: flow cytometry, MM1S cells
Method: as §3

[8] = target: T4, T cell surface CD3 (human, UniProt P07766 23-207); experiment: flow cytometry, human CD3+ T cells
T4 construct: whole, on cells; also called CD3^+ T cells
T4 sequence (P07766 23-207): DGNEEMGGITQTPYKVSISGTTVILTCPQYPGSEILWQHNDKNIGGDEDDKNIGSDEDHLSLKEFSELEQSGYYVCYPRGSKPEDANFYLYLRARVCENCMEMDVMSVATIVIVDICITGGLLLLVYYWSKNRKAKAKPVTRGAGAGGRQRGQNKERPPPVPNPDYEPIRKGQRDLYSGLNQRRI
Method: Human PBMC cells were sorted for CD3⁺ T cells using CD3 magnetic beads (Miltenyi, catalog No. 130-097-043): the cryopreserved PBMCs were thawed, and washed by centrifugation twice for counting. Running buffer (MACS, catalog No. 130-091-221) was added in a cell-to-buffer ratio of 10⁷:80 μL, CD3 beads were added in a cell-to-bead ratio of 10⁷:20 μL, and the mixture was mixed well and incubated at 4° C. for 15 min. The cells were washed with buffer in a cell-to-buffer ratio of 10⁷:1-2 mL. After centrifugation, the supernatant was discarded, and 500 μL of buffer was added to resuspend the cell pellet. The LS sorting column (Miltenyi, catalog No. 130-042-401) was placed on the MidiMACS Starting Kit (LS) magnetic rack (Miltenyi, catalog No. 130-091-051). After rinsing, the cell suspension was added and washed thrice. The LS sorting column was removed from the magnetic rack and placed on a clean centrifuge tube and 5 mL buffer was added to collect the sorted CD3⁺ T cells. After counting, the CD3⁺ T cells were adjusted to a cell density of 5×10⁶-10×10⁶ cells/mL using RPMI medium (Hyclone, catalog No. SH30809.01) containing 2% FBS (fetal bovine serum) and seeded in a 96-well U-bottom cell culture plate (Costar, catalog No. 3799) at 50 μL per well. The test antibodies at different concentrations were prepared using the medium described above. […] The antibodies at different concentrations were added to the 96-well cell culture plate described above at 50 μL per well, mixed well and incubated at 4° C. for 1 h. The cells were washed with pre-cooled running buffer (MACS, catalog No. 130-091-221), and the supernatant was discarded. Pre-cooled fluorescent labeled goat anti-human IgG antibodies (Jackson, catalog No. 109-116-170) were added, and the cells were resuspended at 100 μL per well, mixed well and incubated at 4° C. for 30 min. After washing, 100 μL of pre-cooled running buffer was added to resuspend the cells.

[9] = target: T2, human BCMA on cells; experiment: flow cytometry, NCI-H929 cells
Method: as §3

T1 sequence (P07766 23-126 limits assumed): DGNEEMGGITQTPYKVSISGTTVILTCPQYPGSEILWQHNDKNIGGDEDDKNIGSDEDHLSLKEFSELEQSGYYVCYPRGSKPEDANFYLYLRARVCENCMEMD

B1: anti-BCMA/anti-CD3 multispecific antibody PC2 (bispecific antibody, human IgG1)
chain 1: QVQLVESGGGLVQPGGSLRLSCAASGYSSNVACMAWYRQAPGKGLEWVATIVADFGTTNYAASVKGRFTISQDNSKNTVYLQMNSLRAEDTAVYYCAATQRGGIDWCDEINYWGQGTLVTVSSGEPKSSDKTHTCPPCPAPEAAGGPSVFLFPPKPKDTLMISRTPEVTCVVVDVSHEDPEVKFNWYVDGVEVHNAKTKPREEQYNSTYRVVSVLTVLHQDWLNGKEYKCKVSNKALAAPIEKTISKAKGQPREPQVCTLPPSREEMTKNQVSLSCAVKGFYPSDIAVEWESNGQPENNYKTTPPVLDSDGSFFLVSKLTVDKSRWQQGNVFSCSVMHEALHNHYTQKSLSLSPGK
chain 2: QVQLVESGGGLVQPGGSLRLSCAASGFTFNSACMGWFRQAPGKGREGVSRIETGYGGTVYADSVKGRFTISRDNSKNTVYLQMNSLRAEDTAVYYCAAKRSWCTPTWWHELDYNYWGQGTQVTVSSGGGGSELVVTQEPSLTTSPGGTVTLTCRSSTGAVTTSNYANWVQQKPGQAPRGLIGGTNKRAPGTPARFSGSLLGGKAALTITGVQPEDEAEYYCALWYSNLWVFGGGTKLTVLGGGGSGGGGSGGGGSEVQLVESGGGLVQPGGSLRLSCAASGFTFNTYAMNWVRQAPGKGLEWVARIRSKYNNYATYYADSVKDRFTISRDDSKNTAYLQMNNLKTEDTAMYYCVRHGNFGNSYVSWFAYWGQGTLVTVSSGEPKSSDKTHTCPPCPAPEAAGGPSVFLFPPKPKDTLMISRTPEVTCVVVDVSHEDPEVKFNWYVDGVEVHNAKTKPREEQYNSTYRVVSVLTVLHQDWLNGKEYKCKVSNKALAAPIEKTISKAKGQPREPQVYTLPPCREEMTKNQVSLWCLVKGFYPSDIAVEWESNGQPENNYKTTPPVLDSDGSFFLYSKLTVDKSRWQQGNVFSCSVMHEALHNRFTQKSLSLSPGK
notes: Trivalent; two chains; human IgG1 knobs-into-holes Fc
- Kd [1]: 1.33 nM
- Lysis EC50, NCI-H929 cells with human PBMCs (E:T 10:1, 24 h, LDH release) [2]: 0.527 nM
- Maximum lysis rate, NCI-H929 cells with human PBMCs [2]: 38%
- Kd [3]: 0.0185 nM
- Lysis EC50, RPMI-8226 cells with human PBMCs (E:T 10:1, 24 h, LDH release) [4]: 0.0185 nM
- Maximum lysis rate, RPMI-8226 cells with human PBMCs [4]: 39%
- Lysis EC50, MM1S cells with human PBMCs (E:T 10:1, 24 h, LDH release) [5]: 0.0605 nM
- Maximum lysis rate, MM1S cells with human PBMCs [5]: 28%
- EC50 (read off the curve) [6]: ~0.3 nM
- EC50 [7]: 0.311 nM
- Top(MFI) [7]: 115000 MFI
- EC50 [8]: ~462 nM
- Top(MFI) [8]: 37200 MFI
- EC50 [9]: 1.03 nM
- Top(MFI) [9]: 234000 MFI
